# Values of other authors, collected in article PMC7723891.
# Target: Spike RBD (SARS-CoV-2) (UniProt P0DTC2)
# Assay: Biacore
substance,measurement,value
CD147 (from UniProt P35613),Kd,185 nM
